Our source for the Kd and IC50 values is patent US20110059889A1 (SYNTONIX PHARMACEUTICALS, published 2011).

Where two headings read alike, the source gives them in different places. Numbered stars: 1 amine (or outer) side, 2 acyl side, 3 side chain; on linkers, the order of the positions; unused ones are H or OH. Bridge positions count the residues as written; N and C are the ends. Square brackets hold non-standard residues; d marks the D form. Ends that are not written are not given here. Tyr(2-NO2) = 2-nitro-Tyr, O=C([C@H](Cc1ccc(O[*:3])cc1[N+](=O)[O-])N[*:1])[*:2]; Phe(4-NO2) = N[C@@H](Cc1ccc([N+](=O)[O-])cc1)C(=O)O; Phe(F5) = N[C@@H](Cc1c(F)c(F)c(F)c(F)c1F)C(=O)O; Phe(4-NH2) = Nc1ccc(C[C@H](N)C(=O)O)cc1; Phe(4-F) = N[C@@H](Cc1ccc(F)cc1)C(=O)O; Phe(2-Me) = Cc1ccccc1C[C@H](N)C(=O)O; Pen = CC(C)(S)[C@H](N)C(=O)O; Sar = CNCC(=O)O

Assay [1] addresses T1, soluble human FcRn (shFcRn) (human, UniProt P55899 24-297; P61769 21-119).
T1 construct: Biotinylated for the ELISA, amine-coupled to a CM5 chip for SPR; also called biotinylated shFcRn
Kind of assay: SPR pH 6; Peptide No. 94: Pen, PheNHAc for Phe (QRF-Pen-TGH-(PheNHAc)-…).
Method: (§1) The following steps were performed to cross-link soluble human or cynomolgus FcRn to the dextran surface of a CM5 sensor chip (Biacore AB, Uppsala, Sweden) by an amine coupling reaction involving 1-ethyl-(3-dimethylaminopropyl)-carbodiimide hydrochloride (EDC) (Biacore AB, Uppsala, Sweden) and N-hydroxysuccinimide (NHS) (Biacore AB, Uppsala, Sweden) as recommended by Biacore (BIAapplications Handbook, version AB, section 4.2, Biacore AB, Uppsala, Sweden). […] Residual sites on the FcRn flow cell were blocked with 1 M ethanolamine hydrochloride pH 8.5 (Biacore AB, Uppsala, Sweden). A control flow cell was blocked with ethanolamine for reference subtraction. For analysis of the monomeric peptides, FcRn was coated to a final density of 4000-5000 response units (RU). For analysis of the peptide dimers, FcRn was coated to a density of 2000-2500 RU. All SPR measurements were performed using a BIACORE 3000 Instrument (Biacore AB Uppsala, Sweden). For measurements done at either pH 6 or pH 7.4, experiments were performed in 50 mM phosphate, 100 mM sodium chloride, 0.01% surfactant P20 (Biacore AB, Uppsala, Sweden).
(§2) Ten, 2-fold dilutions of the peptide were injected over the FcRn-CM5 chip at a rate of 20 μl/min for 2 min. The peptide was dissociated from the chip for 2.5 minutes with buffer. […] Sensorgrams were generated and analyzed using BiaEval software version 3.1 (Biacore AB, Uppsala, Sweden). […]

The target of assay [2] is T1, soluble human FcRn (shFcRn). Kind of assay: SPR pH 6; Peptide No. 87: Pen, 2-nitro-Tyr for Tyr (QRF-Pen-TGHFGGL-(2-nitro-Tyr)-PCNGP).
Method: as §1, §2
The target is the same in assay [3]. Kind of assay: IgG competition ELISA. On the technique in general: In an ELISA, binding on a coated surface is turned into a signal by an enzyme label.
Assay [4] has the same target. Briefly: SPR pH 6; Peptide No. 88: Pen, 2-MePhe for Phe (QRF-Pen-TGH-(2-MePhe)-…).
Method: as §1, §2
For assay [5] the target is unchanged. Kind of assay: IgG competition ELISA. This is another data set of the same source.
Assay [6] shares this target. Briefly: SPR pH 6; 4-amino-Phe in place of Tyr; Pen backbone.
Method: as §1, §2
Assay [7] has the same target. Kind of assay: SPR pH 6; Peptide No. 189: Pen, lower-case a, Sar (QRF-Pen-TGHF-a-Sar-LYPCNGP).
Method: as §1, §2
The target is the same in assay [8]. Kind of assay: SPR pH 6; Peptide No. 75: Pen, lower-case a-G (QRF-Pen-TGHF-a-G-LYPCNGP).
Method: as §1, §2
The target is the same in assay [9]. Briefly: SPR pH 6; 4-nitro-Phe in place of Tyr; Pen backbone.
Method: as §1, §2
For assay [10] the target is unchanged. Briefly: SPR pH 6.
Method: as §1
Ten, 2-fold dilutions of the peptide were injected over the FcRn-CM5 chip at a rate of 20 μl/min for 2 min. The peptide was dissociated from the chip for 2.5 minutes with buffer. Any remaining peptide was removed from the chip with a 30 second injection of HBS-P buffer (Biacore AB, Uppsala, Sweden) at a rate of 30 μl/min. Sensorgrams were generated and analyzed using BiaEval software version 3.1 (Biacore AB, Uppsala, Sweden). The equilibrium RU observed for each injection was plotted against concentration. The equilibrium KD values were derived by analysis of the plots using the steady state affinity model included in the BiaEval software.
For assay [11] the target is unchanged. Briefly: IgG competition ELISA. The source holds these as a separate data set.
Method: The wells were coated with 100 μl/well of 1 μg/ml biotinylated-shFcRn in Buffer A. The plate was sealed and incubated at 37° C. for 2 hours. Afterwards, the plate was washed with 200 μl/well of Buffer B (Buffer B: 100 mM MES pH 6, 150 mM NaCl, 0.5% BSA IgG-free (Jackson ImmunoResearch, West Grove, Pa.), 0.05% Tween-20). […] To allow for mixing, the plate was rocked for 2 minutes, sealed and incubated at 37° C. for 2 hours. […] The plate was covered, incubated for 30 minutes at room temperature and washed 4 times with 200 μl/well of ice-cold buffer B. SureBlue TMB substrate solution (100 μl/well, KPL, Gaithersburg, Md.) was added and the plate was allowed to incubate at room temperature until color developed, which took 5 to 10 minutes. Once color developed, 100 μl/well of TMB stop solution (KPL, Gaithersburg, Md.) was added and the absorbance was measured at 450 nm. The data was plotted as absorbance vs. peptide concentration to derive the inhibitory concentration 50% (IC₅₀) values.
The target is the same in assay [12]. Kind of assay: SPR pH 7.4.
Method: as §1, §2
Assay [13] has the same target. Kind of assay: SPR pH 6; pentafluoroPhe in place of Tyr; Pen backbone.
Method: as §1, §2
The target is the same in assay [14]. Kind of assay: SPR pH 6; Peptide No. 74: Pen, G and lower-case a (QRF-Pen-TGHF-G-a-LYPCNGP).
Method: as §1, §2
For assay [15] the target is unchanged. Briefly: IgG competition ELISA. The source holds these as a separate data set.
The target is the same in assay [16]. Kind of assay: SPR pH 7.4. The source holds these as a separate data set.
Method: as §1, §2

T1 sequence (P55899 24-297 limits assumed, chain 1 of 2): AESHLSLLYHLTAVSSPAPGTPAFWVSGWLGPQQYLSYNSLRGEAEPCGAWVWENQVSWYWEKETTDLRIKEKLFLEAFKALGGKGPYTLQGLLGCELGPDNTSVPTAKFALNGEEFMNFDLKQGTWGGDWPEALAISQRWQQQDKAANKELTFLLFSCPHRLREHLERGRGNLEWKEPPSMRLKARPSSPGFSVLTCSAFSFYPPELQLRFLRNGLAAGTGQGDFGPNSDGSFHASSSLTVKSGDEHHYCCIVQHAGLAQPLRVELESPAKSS
T1 sequence (P61769 21-119 limits assumed, chain 2 of 2): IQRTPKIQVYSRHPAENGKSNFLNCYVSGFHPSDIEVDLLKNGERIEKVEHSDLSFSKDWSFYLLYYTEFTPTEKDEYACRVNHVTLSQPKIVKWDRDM

Broadly, the Kd is the free concentration of one partner at which half of the binding sites on the other are occupied at equilibrium, for simple one-to-one binding. A low value points to higher affinity. In turn, QRF[Pen]TGH[Phe(4-NHAc)]GGLYPCNGP-NH2 (disulfide 4-14) [Peptide No. 94] displayed a Kd in [1] of 270000 nM.

B1: Peptide No. 87 (peptide)
peptide: QRF[Pen]TGHFGGL[Tyr(2-NO2)]PCNGP-NH2
modifications: disulfide 4-14; N-terminus assumed
SMILES: CC(C)C[C@@H]1NC(=O)CNC(=O)CNC(=O)[C@H](Cc2ccccc2)NC(=O)[C@H](Cc2c[nH]cn2)NC(=O)CNC(=O)[C@H]([C@@H](C)O)NC(=O)[C@@H](NC(=O)[C@H](Cc2ccccc2)NC(=O)[C@H](CCCNC(=N)N)NC(=O)[C@@H](N)CCC(N)=O)C(C)(C)SSC[C@@H](C(=O)N[C@@H](CC(N)=O)C(=O)NCC(=O)N2CCC[C@H]2C(N)=O)NC(=O)[C@@H]2CCCN2C(=O)[C@H](Cc2ccc(O)cc2[N+](=O)[O-])NC1=O
On to B1, for which, in assay [2], the Kd was found to be 290000 nM.

B2: Peptide No. 88 (peptide)
peptide: QRF[Pen]TGH[Phe(2-Me)]GGLYPCNGP-NH2
modifications: disulfide 4-14; N-terminus assumed
SMILES: Cc1ccccc1C[C@@H]1NC(=O)[C@H](Cc2c[nH]cn2)NC(=O)CNC(=O)[C@H]([C@@H](C)O)NC(=O)[C@@H](NC(=O)[C@H](Cc2ccccc2)NC(=O)[C@H](CCCNC(=N)N)NC(=O)[C@@H](N)CCC(N)=O)C(C)(C)SSC[C@@H](C(=O)N[C@@H](CC(N)=O)C(=O)NCC(=O)N2CCC[C@H]2C(N)=O)NC(=O)[C@@H]2CCCN2C(=O)[C@H](Cc2ccc(O)cc2)NC(=O)[C@H](CC(C)C)NC(=O)CNC(=O)CNC1=O
One may read the IC50 as the concentration at which inhibition is half-maximal. Low readings indicate greater potency, high ones weaker potency. As for B2, the 50% inhibitory concentration (IC50) in assay [3] amounted to 1000 nM. Binding in assay [4] was put at a Kd of 200 nM.

B3: Peptide No. 63 (peptide)
peptide: QRF[Pen]TGHFGGL[Phe(4-NH2)]PCNGP-NH2
modifications: disulfide 4-14; N-terminus assumed
SMILES: CC(C)C[C@@H]1NC(=O)CNC(=O)CNC(=O)[C@H](Cc2ccccc2)NC(=O)[C@H](Cc2c[nH]cn2)NC(=O)CNC(=O)[C@H]([C@@H](C)O)NC(=O)[C@@H](NC(=O)[C@H](Cc2ccccc2)NC(=O)[C@H](CCCNC(=N)N)NC(=O)[C@@H](N)CCC(N)=O)C(C)(C)SSC[C@@H](C(=O)N[C@@H](CC(N)=O)C(=O)NCC(=O)N2CCC[C@H]2C(N)=O)NC(=O)[C@@H]2CCCN2C(=O)[C@H](Cc2ccc(N)cc2)NC1=O
Consider B3, for which, in assay [5], the IC50 was determined as 110000 nM. The equilibrium dissociation constant (Kd) in assay [6] worked out at 34000 nM.

B4: Peptide No. 189 (peptide)
peptide: QRF[Pen]TGHF[dA][Sar]LYPCNGP-NH2
modifications: disulfide 4-14; N-terminus assumed
SMILES: CC(C)C[C@@H]1NC(=O)CN(C)C(=O)[C@@H](C)NC(=O)[C@H](Cc2ccccc2)NC(=O)[C@H](Cc2c[nH]cn2)NC(=O)CNC(=O)[C@H]([C@@H](C)O)NC(=O)[C@@H](NC(=O)[C@H](Cc2ccccc2)NC(=O)[C@H](CCCNC(=N)N)NC(=O)[C@@H](N)CCC(N)=O)C(C)(C)SSC[C@@H](C(=O)N[C@@H](CC(N)=O)C(=O)NCC(=O)N2CCC[C@H]2C(N)=O)NC(=O)[C@@H]2CCCN2C(=O)[C@H](Cc2ccc(O)cc2)NC1=O
On to B4, for which binding in [7] was put at a Kd of 190 nM.

B5: Peptide No. 75 (peptide)
peptide: QRF[Pen]TGHF[dA]GLYPCNGP-NH2
modifications: disulfide 4-14; N-terminus assumed
SMILES: CC(C)C[C@@H]1NC(=O)CNC(=O)[C@@H](C)NC(=O)[C@H](Cc2ccccc2)NC(=O)[C@H](Cc2c[nH]cn2)NC(=O)CNC(=O)[C@H]([C@@H](C)O)NC(=O)[C@@H](NC(=O)[C@H](Cc2ccccc2)NC(=O)[C@H](CCCNC(=N)N)NC(=O)[C@@H](N)CCC(N)=O)C(C)(C)SSC[C@@H](C(=O)N[C@@H](CC(N)=O)C(=O)NCC(=O)N2CCC[C@H]2C(N)=O)NC(=O)[C@@H]2CCCN2C(=O)[C@H](Cc2ccc(O)cc2)NC1=O
B5: in [8], the Kd worked out at 490 nM.

B6: Peptide No. 68 (peptide)
peptide: QRF[Pen]TGHFGGL[Phe(4-NO2)]PCNGP-NH2
modifications: disulfide 4-14; N-terminus assumed
SMILES: CC(C)C[C@@H]1NC(=O)CNC(=O)CNC(=O)[C@H](Cc2ccccc2)NC(=O)[C@H](Cc2c[nH]cn2)NC(=O)CNC(=O)[C@H]([C@@H](C)O)NC(=O)[C@@H](NC(=O)[C@H](Cc2ccccc2)NC(=O)[C@H](CCCNC(=N)N)NC(=O)[C@@H](N)CCC(N)=O)C(C)(C)SSC[C@@H](C(=O)N[C@@H](CC(N)=O)C(=O)NCC(=O)N2CCC[C@H]2C(N)=O)NC(=O)[C@@H]2CCCN2C(=O)[C@H](Cc2ccc([N+](=O)[O-])cc2)NC1=O
In assay [9], B6 had a dissociation constant (Kd) of 180000 nM.

B7: Peptide No. 296 (peptide)
peptide: QRF[Pen]HGHFGGLYPCNGP-NH2
modifications: disulfide 4-14; N-terminus assumed
SMILES: CC(C)C[C@@H]1NC(=O)CNC(=O)CNC(=O)[C@H](Cc2ccccc2)NC(=O)[C@H](Cc2c[nH]cn2)NC(=O)CNC(=O)[C@H](Cc2c[nH]cn2)NC(=O)[C@@H](NC(=O)[C@H](Cc2ccccc2)NC(=O)[C@H](CCCNC(=N)N)NC(=O)[C@@H](N)CCC(N)=O)C(C)(C)SSC[C@@H](C(=O)N[C@@H](CC(N)=O)C(=O)NCC(=O)N2CCC[C@H]2C(N)=O)NC(=O)[C@@H]2CCCN2C(=O)[C@H](Cc2ccc(O)cc2)NC1=O
Regarding B7, the Kd in assay [10] was found to be 150 nM; in [12] it was 960 nM. The 50% inhibitory concentration (IC50) in [11] was 3000 nM.

B8: Peptide No. 65 (peptide)
peptide: QRF[Pen]TGHFGGL[Phe(F5)]PCNGP-NH2
modifications: disulfide 4-14; N-terminus assumed
SMILES: CC(C)C[C@@H]1NC(=O)CNC(=O)CNC(=O)[C@H](Cc2ccccc2)NC(=O)[C@H](Cc2c[nH]cn2)NC(=O)CNC(=O)[C@H]([C@@H](C)O)NC(=O)[C@@H](NC(=O)[C@H](Cc2ccccc2)NC(=O)[C@H](CCCNC(=N)N)NC(=O)[C@@H](N)CCC(N)=O)C(C)(C)SSC[C@@H](C(=O)N[C@@H](CC(N)=O)C(=O)NCC(=O)N2CCC[C@H]2C(N)=O)NC(=O)[C@@H]2CCCN2C(=O)[C@H](Cc2c(F)c(F)c(F)c(F)c2F)NC1=O
B8 showed a Kd in assay [13] of 72000 nM.

B9: Peptide No. 74 (peptide)
peptide: QRF[Pen]TGHFG[dA]LYPCNGP-NH2
modifications: disulfide 4-14; N-terminus assumed
SMILES: CC(C)C[C@@H]1NC(=O)[C@@H](C)NC(=O)CNC(=O)[C@H](Cc2ccccc2)NC(=O)[C@H](Cc2c[nH]cn2)NC(=O)CNC(=O)[C@H]([C@@H](C)O)NC(=O)[C@@H](NC(=O)[C@H](Cc2ccccc2)NC(=O)[C@H](CCCNC(=N)N)NC(=O)[C@@H](N)CCC(N)=O)C(C)(C)SSC[C@@H](C(=O)N[C@@H](CC(N)=O)C(=O)NCC(=O)N2CCC[C@H]2C(N)=O)NC(=O)[C@@H]2CCCN2C(=O)[C@H](Cc2ccc(O)cc2)NC1=O
In assay [14], B9 had a Kd of 480 nM. The same molecule came in with a concentration for half-maximal inhibition (IC50) in assay [15] of 2000 nM.

B10: Peptide No. 140 (peptide)
peptide: QRF[Pen]TGHFGGL[Phe(4-F)]PCNGP-NH2
modifications: disulfide 4-14; N-terminus assumed
SMILES: CC(C)C[C@@H]1NC(=O)CNC(=O)CNC(=O)[C@H](Cc2ccccc2)NC(=O)[C@H](Cc2c[nH]cn2)NC(=O)CNC(=O)[C@H]([C@@H](C)O)NC(=O)[C@@H](NC(=O)[C@H](Cc2ccccc2)NC(=O)[C@H](CCCNC(=N)N)NC(=O)[C@@H](N)CCC(N)=O)C(C)(C)SSC[C@@H](C(=O)N[C@@H](CC(N)=O)C(=O)NCC(=O)N2CCC[C@H]2C(N)=O)NC(=O)[C@@H]2CCCN2C(=O)[C@H](Cc2ccc(F)cc2)NC1=O
Take B10: the concentration for half-maximal inhibition (IC50) in assay [5] came to 26000 nM. The molecule further yielded a Kd in assay [16] of 24000 nM.
